In assay [1] the target is T1, recombinant ED-B domain of human fibronectin with six histidine tags at the carboxyl terminal (human, UniProt P02751 1266-1356).
T1 construct: domain: ED-B; also called ED-B antigen; independent ED-B domain
The assay is described as follows: ELISA, Scatchard assay method (Beatty), coated ED-B. The procedure:
The Scatchard assay method (Beatty, Beatty et al. 1987) is used for the affinity determination. 0.1 μg/μl ED-B antigen is diluted according to four concentration gradients of 1:1, 1:2, 1:4 and 1:8, enveloped in the ELISA plate, stored overnight at 4° C., and then blocked with 4% skimmed milk. The single-chain antibody diluted according to the concentration gradient of 1:3 is added with the original concentration of the antibody being 10 μg/ml. The antibody reacts under a room temperature for 1 hr, then reacts for 1 hr under the addition of a horseradish peroxidase-labeled rabbit-anti-human IgG antibody, and is stained by adding tetramethyl benzidine (TMB). When an appropriate color depth is reached, the staining is terminated by using 2M H₂SO₄, and the OD450 optical absorption value is determined.
(An ELISA detects its analyte on a solid surface through an enzyme-linked reagent.)

For assay [2], the target named is FN(789), recombinant fibronectin fragment of domains 7, 8 and 9 without the ED-B domain, with 6xHis tags (human, UniProt P02751-1 1173-1446, limits assumed). Put plainly: ELISA on coated antigen, antibody B5 as primary antibody, HRP-labeled rabbit anti-human IgG as secondary antibody, OD450. The protocol:
The plasmid is expressed in E. coli and then purified through a Ni-chelating column. The aforementioned three proteins are used as antigens and are blocked with milk. Then an ELISA detection test is conducted by using the antibody B5 as a primary antibody and using the horseradish peroxidase-labeled rabbit-anti-human IgG antibody as the secondary antibody, with the test results being shown in FIG. 2.

Assay [3] deals with T1, recombinant ED-B domain of human …. Put plainly: SPR, BIAcore3000, ED-B amine-coupled on the chip. (In SPR one partner is held on a chip, and binding of the other changes the refractive index at the surface.)

The Kd is the free concentration of one partner at which half of the binding sites on the other are occupied at equilibrium, for simple one-to-one binding.

T1 sequence (P02751 other isoform, or with tags, fused parts or gaps limits assumed): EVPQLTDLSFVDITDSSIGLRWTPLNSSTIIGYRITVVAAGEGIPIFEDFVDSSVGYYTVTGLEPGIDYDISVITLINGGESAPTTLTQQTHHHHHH
Chain of FN(789), recombinant fibronectin fragment of domains 7, 8 and 9 without the ED-B domain, with 6xHis tags (P02751 other isoform, or with tags, fused parts or gaps limits assumed): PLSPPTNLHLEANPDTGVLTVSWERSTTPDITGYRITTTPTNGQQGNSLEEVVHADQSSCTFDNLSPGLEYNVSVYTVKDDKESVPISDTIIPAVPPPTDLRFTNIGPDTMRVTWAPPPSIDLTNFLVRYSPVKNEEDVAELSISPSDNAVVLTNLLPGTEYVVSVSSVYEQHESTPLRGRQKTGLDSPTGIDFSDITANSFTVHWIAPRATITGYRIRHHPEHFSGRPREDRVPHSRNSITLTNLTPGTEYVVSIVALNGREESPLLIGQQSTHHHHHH

B1: antibody B5 (humanized single-chain antibody against the ED-B domain, expressed as a fusion with the Fc of human IgG1) (Fc fusion)
scFv: EVQLLESGGGLVQPGGSLRLSCAASGFTFSSYAMSWVRQAPGKGLEWVSRISPSGSSTYYADSVKGRFTISRDNSKNTLYLQMNSLRAEDTAVYYCARHTAPLFDYWGQGTLVTVSSGGGGSGGGGSGGGGSSEIVLTQSPGTLSLSPGERATLSCRASQSVSSSYLAWYQQKPGQAPRLLIYKASNLATGIPDRFSGSGSGTDFTLTISRLEPEDFAVYYCQQGRHTPPTFGQGTKVEIK
notes: also called B5-IgG1Fc; single-chain antibody B5; not shown: Fc fragment of the constant region of human IgG1, fused in frame after the scFv (pCI-neo vector); limits and junction no
For the molecule B1, in assay [1], the Kd came out at 1.8 nM. Besides, the binding result in assay [2] is recorded as “no binding”.

B2: antibody L19 (antibody, V domains shown)
VH: EVQLLESGGGLVQPGGSLRLSCAASGFTFSSFSMSWVRQAPGKGLEWVSSISGSSGTTYYADSVKGRFTISRDNSKNTLYLQMNSLRAEDTAVYYCAKPFPYFDYWGQGTLVTVSS
VL: EIVLTQSPGTLSLSPGERATLSCRASQSVSSSYLAWYQQKPGQAPRLLIYYASSRATGIPDRFSGSGSGTDFTLTISRLEPEDFAVYYCQQTGRIPPTFGQGTKVEIK
On to B2, for which the results for the dissociation constant (Kd) in assay [3] and in assay [1] were 0.4 nM and 6 nM, respectively.

Values taken from patent US20190185550A1 (HEFEI LIFEON PHARMACEUTICAL, published 2019).
